What was measured:
[1] = target: T1, recombinant human or cyno PD-1 (immobilized onto CM5 chip, Example 1) (human or cyno ( which was …, UniProt Q15116 25-167, limits assumed)); experiment: SPR (Biacore T200), PD-1 immobilized on CM5 chip, Fab as analyte
T1 construct: also called antigen
Procedure: Immobilization of recombinant human or cyno PD-1 onto CM5 chip: A CM5 sensor chip was activated in FC2 by 7-min. injection (10 μl/min.) of freshly prepared 1:1 50 mM NHS: 200 mM EDC. PD-1 at a concentration of 0.2 μg/ml in 10 mM sodium acetate buffer pH 5.0 was injected onto the activated chip at 5 μl/min. (HBS-EP running buffer: 10 mM HEPES, 150 mM NaCl, 3.4 mM EDTA, 0.005% surfactant P20, pH 7.4) for 120 seconds. The remaining active coupling sites were blocked with 7 min. injection of 1M ethanolamine at 10 μl/min.
Binding kinetics measurement: Various concentrations of the Fabs were injected with a flow rate of 30 μl/min for 180 seconds(s) during the association phase. The dissociation of bound antibody was monitored by flowing HBS-EP buffer over the chip surface for 600 seconds. At the end of each cycle, the sensor surfaces were regenerated by injecting regeneration buffer (10 mM glycine buffer with pH 1.7) for 180 seconds. After sensograms were corrected for signals from a reference flow, kinetics were calculated with BIACORE T 200 evaluation software ver.1.0 (Biacore, GE, USA).

[2] = target: T2, polyhistidine-tagged human PD-1 (hPD1-His, 98AFK) (human, UniProt Q15116 25-167, limits assumed); experiment: SPR (Biacore T200), mAb captured on anti-Fc chip, hPD1-His as analyte
T2 construct: also called human PD1-His; Human PD-1-His
T2 sequence (Q15116 25-167 limits assumed): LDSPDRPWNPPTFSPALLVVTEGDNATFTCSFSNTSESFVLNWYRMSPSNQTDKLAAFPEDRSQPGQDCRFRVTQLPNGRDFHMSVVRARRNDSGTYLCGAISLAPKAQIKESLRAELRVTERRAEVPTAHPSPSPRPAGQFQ
Procedure: (§1) A surface plasmon resonance (SPR)-based assay utilizing capture mode was used to determine the binding kinetics and affinities of anti-PD-1 antibodies against polyhistidine-tagged human PD-1 (hPD1-His, 98AFK). Following manufacture instructions, a series S sensor chip CM5 (GE Healthcare, BR100530) was activated using an amine-coupling kit (GE Healthcare, BR100050). Either human capture kit (anti-human Fc, 25 μg/mL, GE Healthcare, BR100839) or mouse capture kit (anti-mouse Fc, 30 μg/mL, GE Healthcare, BR100838) antibody diluted in the supplied pH 5.0, 10 mM sodium acetate buffer was immobilized onto the activated surface for 7 minutes. After immobilization, surfaces were deactivated with 1M ethanolamine/HCl (pH 8.5) for 7 minutes.
(§2) Binding kinetics were measured on a biacore T200 in HBS-EP+ (0.01 M HEPES pH 7.4, 0.15 M NaCl, 3 mM EDTA, 0.05% v/v Surfactant P20) running buffer at 25° C. Antibodies were captured either on mouse or human Fc capture surfaces at 10 μL/min flow rate. Antibodies were captured on flow cells 2, 3 and 4. Flow cell 1 was used as a reference with no antibody captured. A 6-point, 2-fold serial dilutions of the analyte 98AFK (hPD1-His), starting at 20 nM, were prepared in the running buffer (HBS-EP+). Two buffer blanks were included for double referencing. Titration series were injected for 3 minutes at 50 μl/min followed by 600 seconds of dissociation. After each cycle, surfaces were regenerated with a 30 second injection of 3M MgCl₂ at […] on the anti-human Fc chip or 180 seconds of 10 mM Glycine pH 1.7 at 10 μl/min on the anti-mouse Fc chip.
(§3) Sensorgram processing and data analysis were performed with Biacore T200 Evaluation Software Version 2.0.4 (GE Healthcare). […] Processed curves were globally fitted to a 1:1 binding model to determine the association rate constant, kₒₙ (M⁻¹s⁻¹, where “M” equals molar and “s” equals seconds) and the dissociation rate constant, koff (s⁻¹). These rate constants were used to calculate the equilibrium dissociation constant, KD (M)=koff/kₒₙ.

[3] = target: T2, polyhistidine-tagged human PD-1 …; experiment: SPR (Biacore T200), mAb captured on anti-Fc chip; reference Mouse 08A
Procedure: as §1, §2, §3

T1 sequence (Q15116 25-167 limits assumed): as above

Kd [1] [nM]	Kd [2] [nM]	KD (REF)/KD [3]	Binder
0.031			Fab 098 (Fab, V domains shown, also called Fab98) VH: EVQLVQSGAEVKKPGASVKVSCKASGYTFTSYYLYWVRQAPGQGLEWIGGVNPSNGGTNFNEKFKSRVTLTVDTSISTAYMELSRLRSDDTAVYYCTRRLSHYDGGFDYWGQGTTVTVSS VL: DIVMTQTPLSLSVTPGQPASISCRASKSVSTSGFSYLHWYLQKPGQPPQLLIFLGKFRESGVPDRFSGSGSGTDFTLKISRVEAEDVGVYYCQHSWELPLTFGQGTKLEIKR
0.024			Fab 100 (Fab, V domains shown) VH: EVQLVQSGAEVKKPGASVKVSCKASGYTFTSYYLYWVRQAPGQGLEWIGGVNPSNGGTNFNEKFKSRVTLTVDTSISTAYMELSRLRSDDTAVYYCTRRLSHYDGGFDYWGQGTTVTVSS VL: DIVMTQTPLSLSVTPGQPASISCRASKSVSTSGFSYLHWYLQKPGQPPQLLIFLSKYRSSGVPDRFSGSGSGTDFTLKISRVEAEDVGVYYCSQAYHLPLTFGQGTKLEIKR
	0.3	0.8	Humanized 08A IgG4 S61N N55E (antibody, V domains shown, IgG4 S228P / kappa; also called 50AQK; Humanized x [PD-1_H] mAb (08A/HuPD1A-11 N55E S228P) IgG4 / Kappa) VH: EVQLVQSGAEVKKPGASVKVSCKASGYTFTSYYLYWVRQAPGQGLEWIGGVNPSEGGTNFNEKFKSRVTLTVDTSISTAYMELSRLRSDDTAVYYCTRRDSNYDGGFDYWGQGTTVTVSS VL: DIVMTQTPLSLSVTPGQPASISCRASKSVSTSGFSYLHWYLQKPGQPPQLLIFLASNLESGVPDRFSGSGSGTDFTLKISRVEAEDVGVYYCQHSWELPLTFGQGTKLEIKR
0.034			Fab 099 (Fab, V domains shown) VH: EVQLVQSGAEVKKPGASVKVSCKASGYTFTSYYLYWVRQAPGQGLEWIGGVNPSNGGTNFNEKFKSRVTLTVDTSISTAYMELSRLRSDDTAVYYCTRRLSHYDGGFDYWGQGTTVTVSS VL: DIVMTQTPLSLSVTPGQPASISCRASKSVSTSGFSYLHWYLQKPGQPPQLLIFLGTHRASGVPDRFSGSGSGTDFTLKISRVEAEDVGVYYCQHSWELPLTFGQGTKLEIKR
	0.045	5.2	Humanized 08A IgG4 S61N (lot 67AGG) (antibody, IgG4 S228P / kappa; Differs from lot 98AIO by an HFR4 mutation; also called Humanized x [PD-1_H] mAb (08A/HuPD1A-11 S61N WT) S228P IgG4 / Kappa, with HFR4 mutation) heavy: not shown light: DIVMTQTPLSLSVTPGQPASISCRASKSVSTSGFSYLHWYLQKPGQPPQLLIFLASNLESGVPDRFSGSGSGTDFTLKISRVEAEDVGVYYCQHSWELPLTFGQGTKLEIKRTVAAPSVFIFPPSDEQLKSGTASVVCLLNNFYPREAKVQWKVDNALQSGNSQESVTEQDSKDSTYSLSSTLTLSKADYEKHKVYACEVTHQGLSSPVTKSFNRGEC
0.029			Fab 101 (Fab, V domains shown) VH: EVQLVQSGAEVKKPGASVKVSCKASGYTFTSYYLYWVRQAPGQGLEWIGGVNPSNGGTNFNEKFKSRVTLTVDTSISTAYMELSRLRSDDTAVYYCTRRLSHYDGGFDYWGQGTTVTVSS VL: DIVMTQTPLSLSVTPGQPASISCRASKSVSTSGFSYLHWYLQKPGQPPQLLIFLGKYGASGVPDRFSGSGSGTDFTLKISRVEAEDVGVYYCAQATQLPLTFGQGTKLEIKR
0.052			Fab 104 (Fab, V domains shown) VH: EVQLVQSGAEVKKPGASVKVSCKASGYTFTSYYLYWVRQAPGQGLEWIGGVNPSNGGTNFNEKFKSRVTLTVDTSISTAYMELSRLRSDDTAVYYCTRRLSHYDGGFDYWGQGTTVTVSS VL: DIVMTQTPLSLSVTPGQPASISCRASKSVSTSGFSYLHWYLQKPGQPPQLLIFLGTHSVSGVPDRFSGSGSGTDFTLKISRVEAEDVGVYYCQHSWELPLTFGQGTKLEIKR
	0.14	1.7	Humanized 08A IgG4 (antibody, V domains shown, IgG4 S228P / kappa; also called 73AGG; Humanized x [PD-1_H] mAb (08A/HuPD1A-11 S228P) IgG4 / Kappa) VH: EVQLVQSGAEVKKPGASVKVSCKASGYTFTSYYLYWVRQAPGQGLEWIGGVNPSNGGTNFSEKFKSRVTLTVDTSISTAYMELSRLRSDDTAVYYCTRRDSNYDGGFDYWGQGTTVTVSS VL: DIVMTQTPLSLSVTPGQPASISCRASKSVSTSGFSYLHWYLQKPGQPPQLLIFLASNLESGVPDRFSGSGSGTDFTLKISRVEAEDVGVYYCQHSWELPLTFGQGTKLEIKR
0.028			Fab 103 (Fab, V domains shown) VH: EVQLVQSGAEVKKPGASVKVSCKASGYTFTSYYLYWVRQAPGQGLEWIGGVNPSNGGTNFNEKFKSRVTLTVDTSISTAYMELSRLRSDDTAVYYCTRRLSHYDGGFDYWGQGTTVTVSS VL: DIVMTQTPLSLSVTPGQPASISCRASKSVSTSGFSYLHWYLQKPGQPPQLLIFLGRYLQSGVPDRFSGSGSGTDFTLKISRVEAEDVGVYYCQHSWELPLTFGQGTKLEIKR
0.042			Fab 102 (Fab, V domains shown) VH: EVQLVQSGAEVKKPGASVKVSCKASGYTFTSYYLYWVRQAPGQGLEWIGGVNPSNGGTNFNEKFKSRVTLTVDTSISTAYMELSRLRSDDTAVYYCTRRLSHYDGGFDYWGQGTTVTVSS VL: DIVMTQTPLSLSVTPGQPASISCRASKSVSTSGFSYLHWYLQKPGQPPQLLIFLGHFASSGVPDRFSGSGSGTDFTLKISRVEAEDVGVYYCQHSWELPLTFGQGTKLEIKR
	0.46	0.5	Mouse 09A (antibody, mouse IgG1, kappa, V domains shown, Mouse IgG1 / kappa; also called 03AFN; Mouse x [PD-1_H] mAb (clone 09A) IgG1 / Kappa) VH: QVQLQQPGAELVKPGTSVKLSCKASGYTFTNYYMYWVKQRPGQGLEWIGGINPSNGGTNFNEKFKNKATLTVDSSSSTTYMQLSSLTSEDSAVYYCTRRDYRFDMGFDYWGQGTTLTVSS VL: DIVLTQSPASLAVSLGQRAAISCRASKGVSTSGYSYLHWYQQKPGQSPKLLIYLASYLESGVPARFSGSGSGTDFTLNIHPVEEEDAATYYCQHSRDLPLTFGTGTKLELKR
	0.24	1	Mouse 08A (REF) (antibody, mouse IgG1, kappa, V domains shown, Mouse IgG1 / kappa; also called 09AFF; parental mouse 08A antibody) VH: QVQLQQPGAELVKPGASVKLSCKASGYTFTSYYLYWMKQRPGQGLEWIGGVNPSNGGTNFSEKFKSKATLTVDKSSSTAYMQLSSLTSEDSAVYYCTRRDSNYDGGFDYWGQGTTLTVSS VL: DIVLTQSPTSLAVSLGQRATISCRASKSVSTSGFSYLHWYQQKPGQPPKLLIFLASNLESGVPARFSGSGSGTDFTLNIHPVEEEDAATYYCQHSWELPLTFGAGTKLELKR
	9.6	0.04	Mouse 08A N59Q (antibody, mouse IgG1, kappa, V domains shown, Mouse IgG1 / kappa; also called 38AFL; Mouse x [PD-1_H] mAb (Clone 1.08 N59Q) IgG1 / Kappa) VH: QVQLQQPGAELVKPGASVKLSCKASGYTFTSYYLYWMKQRPGQGLEWIGGVNPSNGGTQFSEKFKSKATLTVDKSSSTAYMQLSSLTSEDSAVYYCTRRDSNYDGGFDYWGQGTTLTVSS VL: DIVLTQSPTSLAVSLGQRATISCRASKSVSTSGFSYLHWYQQKPGQPPKLLIFLASNLESGVPARFSGSGSGTDFTLNIHPVEEEDAATYYCQHSWELPLTFGAGTKLELKR
	0.59	0.4	Mouse 08A N59A (antibody, mouse IgG1, kappa, V domains shown, Mouse IgG1 / kappa; also called 80AFH; Mouse x [PD-1_H] mAb (Clone 1.08 N59A) IgG1 / Kappa) VH: QVQLQQPGAELVKPGASVKLSCKASGYTFTSYYLYWMKQRPGQGLEWIGGVNPSNGGTAFSEKFKSKATLTVDKSSSTAYMQLSSLTSEDSAVYYCTRRDSNYDGGFDYWGQGTTLTVSS VL: DIVLTQSPTSLAVSLGQRATISCRASKSVSTSGFSYLHWYQQKPGQPPKLLIFLASNLESGVPARFSGSGSGTDFTLNIHPVEEEDAATYYCQHSWELPLTFGAGTKLELKR
	5.9	0.03	Mouse 08A N59E (antibody, mouse IgG1, kappa, V domains shown, Mouse IgG1 / kappa; also called 39AFL; Mouse x [PD-1_H] mAb (Clone 1.08 N59E) IgG1 / Kappa) VH: QVQLQQPGAELVKPGASVKLSCKASGYTFTSYYLYWMKQRPGQGLEWIGGVNPSNGGTEFSEKFKSKATLTVDKSSSTAYMQLSSLTSEDSAVYYCTRRDSNYDGGFDYWGQGTTLTVSS VL: DIVLTQSPTSLAVSLGQRATISCRASKSVSTSGFSYLHWYQQKPGQPPKLLIFLASNLESGVPARFSGSGSGTDFTLNIHPVEEEDAATYYCQHSWELPLTFGAGTKLELKR

— patent US20220251194A1 (Merck Sharp & Dohme, published 2022)
